Test results reported in the supplement of paper PMC10126150.
± gives the standard deviation of the averaged measurements.

Tested on: ATP
Assay: switch fluorescence ratio, 500 uM ATP over buffer (Cy3 cluster intensity, sum of 5 cycles each) (fold (ratio)); higher = stronger signal-on switching upon ATP binding; sequences stand for … in TCGTCGGCAGCGTCAGATGTGTATAAGAGACAGTTTTTTTTTTTTTTTTTTTTTTTTT…TC
Details: aptamer strand: ATP DNA aptamer (quencher-CACCTGGGGGAGTATTGCGGAGGAAGG + anchor), 100 nM annealed; ATP concentration: 500 uM
How it was run: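 The quencher-labelled ATP aptamer, at 100 nM, was annealed to Cy3-labelled switching-strand clusters on a modified Illumina MiSeq flow-cell. The clusters were imaged in selection buffer, then after 15 min with 500 uM ATP at 22 °C, and this buffer/ATP cycle ran five times with NaOH stripping and re-annealing between runs. Per-cluster fluorescence ratios, summed target-cycle over summed buffer-cycle Cy3 intensity, were averaged per switch-domain sequence. Clusters outside 100-1000 RFU were excluded.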
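Note: ATP exposure 15 min at 22 °C before imaging.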

| Sequence | switch fluorescence ratio |
| --- | --- |
| GCGAGGGGGA | 0.984 ± 0.046 |
| GCGAGGGTGG | 1.02 ± 0.018 |
| GCGAGTCTCA | 1.007 ± 0.01 |
| GCGAGTGCGG | 1.02 ± 0.018 |
| GCGAGTTTGC | 1.02 ± 0.017 |
| GCGATAGCAG | 1.03 ± 0.036 |
| GCGATAGGGC | 1.02 ± 0.065 |
| GCGATCAAGG | 1.02 ± 0.012 |
| GCGATCAATC | 1.71 ± 0.029 |
| GCGATCCCCT | 1.77 ± 0.72 |
| GCGATGCTGC | 1.24 ± 0.08 |
| GCGATGTAGA | 1.051 ± 0.0087 |
| GCGATTAAG | 0.981 ± 0.017 |
| GCGATTGTAA | 0.985 ± 0.024 |
| GCGATTTTAA | 1.02 ± 0.048 |
| GCGATTTTTG | 0.986 ± 0.041 |
| GCGCAAAATT | 0.9973 ± 0.0046 |
| GCGCAAGGGG | 1.01 ± 0.015 |
| GCGCAGCGGC | 1.09 ± 0.023 |
| GCGCAGGCTT | 0.986 ± 0.022 |
| GCGCATAAGG | 1.039 ± 0.0057 |
| GCGCATCATT | 0.986 ± 0.025 |
| GCGCCTGTAT | 0.986 ± 0.046 |
| GCGCGCGGAA | 1.016 ± 0.0016 |
| GCGCGGAACG | 0.998 ± 0.047 |
| GCGCGGGAAC | 1.46 ± 0.17 |

| Sequence | switch fluorescence ratio |
| --- | --- |
| GCGCGTGCAC | 0.988 ± 0.042 |
| GCGCTAGCAG | 0.99 ± 0.018 |
| GCGCTATGAG | 1.04 ± 0.02 |
| GCGCTGGTTA | 0.9941 ± 0.0027 |
| GCGCTGTGTG | 1 ± 0.041 |
| GCGCTTTCAC | 1.53 ± 0.026 |
| GCGGAAAGGC | 1.01 ± 0.0025 |
| GCGGAAGGTG | 1.55 ± 0.032 |
| GCGGAATGCA | 0.997 ± 0.025 |
| GCGGACCGGT | 0.968 ± 0.04 |
| GCGGAGAAAT | 1.4 ± 0.3 |
| GCGGATAGAA | 1.04 ± 0.017 |
| GCGGATGCGT | 1.03 ± 0.048 |
| GCGGATGTGC | 1.036 ± 0.0078 |
| GCGGATTTGT | 0.998 ± 0.038 |
| GCGGCAAGGA | 1.04 ± 0.017 |
| GCGGCCCGAG | 0.962 ± 0.022 |
| GCGGCCGAGG | 1.02 ± 0.041 |
| GCGGCCTTGT | 1.04 ± 0.011 |
| GCGGCCTTTC | 1.2 ± 0.23 |
| GCGGCGAGGA | 1.02 ± 0.038 |
| GCGGCGGAGG | 0.995 ± 0.032 |
| GCGGCTGCTG | 1.04 ± 0.062 |
| GCGGCTGG | 0.963 ± 0.022 |
| GCGGCTGGGG | 1.01 ± 0.057 |
| GCGGGAAATT | 1 ± 0.03 |

| Sequence | switch fluorescence ratio |
| --- | --- |
| GCGGGACTTG | 1.03 ± 0.029 |
| GCGGGAGGGG | 0.99 ± 0.054 |
| GCGGGATTAT | 1.012 ± 0.0057 |
| GCGGGCATTT | 0.995 ± 0.015 |
| GCGGGCCGTC | 1.03 ± 0.023 |
| GCGGGGAGGT | 1.01 ± 0.055 |
| GCGGGGCCAG | 0.982 ± 0.011 |
| GCGGGGGAAT | 1.05 ± 0.071 |
| GCGGGGGAGG | 0.993 ± 0.029 |
| GCGGGGGGCA | 1.03 ± 0.055 |
| GCGGGGGTGT | 1.05 ± 0.026 |
| GCGGGGTCGT | 0.977 ± 0.032 |
| GCGGGTAAGC | 1.05 ± 0.012 |
| GCGGGTAGCG | 0.983 ± 0.022 |
| GCGGGTGACC | 1.02 ± 0.034 |
| GCGGGTGGTA | 1.01 ± 0.041 |
| GCGGGTTAGT | 1.13 ± 0.13 |
| GCGGGTTATG | 1.02 ± 0.029 |
| GCGGGTTTTC | 1.03 ± 0.017 |
| GCGGTAACGT | 0.9765 ± 0.0069 |
| GCGGTACGCT | 1.08 ± 0.091 |
| GCGGTATGCT | 0.9517 ± 0.0058 |
| GCGGTATTCT | 1.001 ± 0.0042 |
| GCGGTCAGCT | 0.99 ± 0.087 |
| GCGGTGCTTG | 0.9901 ± 0.0071 |
| GCGGTGGGGG | 1.03 ± 0.03 |

| Sequence | switch fluorescence ratio |
| --- | --- |
| GCGGTTGTCC | 1.0001 ± 0.00078 |
| GCGGTTTAAG | 1 ± 0.013 |
| GCGGTTTCGT | 0.983 ± 0.012 |
| GCGGTTTGAG | 0.933 ± 0.012 |
| GCGTAATATG | 1.16 ± 0.068 |
| GCGTAATGGG | 0.975 ± 0.02 |
| GCGTACGTAG | 0.998 ± 0.019 |
| GCGTAGGTAG | 0.964 ± 0.038 |
| GCGTAGGTGT | 1.09 ± 0.033 |
| GCGTATCGGA | 1.01 ± 0.043 |
| GCGTATGAGA | 1.02 ± 0.013 |
| GCGTATTTGC | 1.033 ± 0.01 |
| GCGTCAAGAG | 1.24 ± 0.046 |
| GCGTCAGCGG | 0.981 ± 0.02 |
| GCGTCGAACA | 0.999 ± 0.068 |
| GCGTCGTCGG | 1.01 ± 0.036 |
| GCGTCTTTAC | 1.13 ± 0.024 |
| GCGTGAAGTA | 0.997 ± 0.012 |
| GCGTGAGGTG | 1.01 ± 0.048 |
| GCGTGAGTTG | 0.9783 ± 0.0085 |
| GCGTGCAGGG | 1.01 ± 0.025 |
| GCGTGCATCC | 1.03 ± 0.053 |
| GCGTGTGGGC | 1.071 ± 0.0066 |
| GCGTGTTTTT | 1.04 ± 0.013 |
| GCGTTCGGCC | 1.01 ± 0.016 |
| GCGTTGGGTC | 1.02 ± 0.014 |

| Sequence | switch fluorescence ratio |
| --- | --- |
| GCGTTGGTCG | 0.929 ± 0.0014 |
| GCGTTTACTT | 1.004 ± 0.0016 |
| GCGTTTTCGG | 1.02 ± 0.039 |
| GCTAAAACAT | 1.0086 ± 0.00063 |
| GCTAAAGGCA | 0.986 ± 0.043 |
| GCTAAAGTTC | 1.01 ± 0.0014 |
| GCTAAATCGG | 1.027 ± 0.0082 |
| GCTAACACTT | 1.02 ± 0.013 |
| GCTAATTTGC | 0.98953 ± 0.00037 |
| GCTACAGCTT | 1.02 ± 0.015 |
| GCTACCTTTG | 1.01 ± 0.014 |
| GCTACGGGTA | 1.08 ± 0.031 |
| GCTACTCGAA | 1.06 ± 0.02 |
| GCTAGAAGCG | 1.001 ± 0.0099 |
| GCTAGAAGGT | 1.01 ± 0.03 |
| GCTAGATTTA | 0.987 ± 0.021 |
| GCTAGCCAAG | 1.04 ± 0.053 |
| GCTAGCCATT | 0.978 ± 0.029 |
| GCTAGGGGGG | 1 ± 0.04 |
| GCTAGGGGGT | 1.02 ± 0.09 |
| GCTAGGGGTT | 1.13 ± 0.25 |
| GCTAGGTCTA | 1.01 ± 0.034 |
| GCTAGTAGTC | 1.01 ± 0.046 |
| GCTAGTTATG | 1.04 ± 0.1 |
| GCTATACGAT | 2.17 ± 0.18 |
| GCTATACGTA | 1.22 ± 0.049 |

| Sequence | switch fluorescence ratio |
| --- | --- |
| GCTATAGACT | 1.02 ± 0.067 |
| GCTATAGGGA | 0.957 ± 0.014 |
| GCTATATTTG | 1.01 ± 0.013 |
| GCTATGGAGC | 1.06 ± 0.079 |
| GCTATGGGGA | 1.02 ± 0.02 |
| GCTATTAAGT | 0.9695 ± 0.003 |
| GCTATTAGTT | 1.04 ± 0.017 |
| GCTATTATTA | 0.974 ± 0.045 |
| GCTATTGATC | 1.02 ± 0.021 |
| GCTATTGCGG | 1.028 ± 0.0042 |
| GCTATTGGCA | 1.014 ± 0.01 |
| GCTATTTGCG | 1 ± 0.022 |
| GCTATTTTTC | 1 ± 0.042 |
| GCTCAATTGA | 1.004 ± 0.01 |
| GCTCACTGTG | 1.037 ± 0.0034 |
| GCTCAGGCTG | 1.02 ± 0.024 |
| GCTCAGTTTG | 0.992 ± 0.013 |
| GCTCATGGTT | 1.03 ± 0.046 |
| GCTCCATCGA | 1.11 ± 0.015 |
| GCTCCTAGCT | 1.07 ± 0.028 |
| GCTCGACCCT | 1.07 ± 0.039 |
| GCTCGCGTGG | 0.956 ± 0.025 |
| GCTCGGGGTT | 1.01 ± 0.011 |
